According to patent US20250277008A1, “Novel Anti-Bacterial Peptides Derived From Differentiating Stem Cells” (AGENCY FOR SCIENCE, TECHNOLOGY AND RESEARCH, priority 2022, published 2025):
Converted amounts (≈) assume the structure as drawn. “Also recorded” adds a separate entry of the source. Where two headings read alike, the source gives them in different places. Ends that are not written are not given here.

How the values were obtained:
S. typhimurium (ST) [1] = test: Anti-bacterial resistance evolution assay (serial passaging); format: cell-based; conditions: Salmonella enterica, 384 h, read-out: Minimum Inhibitory Concentration (MIC) after serial passaging
Method: To determine the antibacterial effects of the ASC-CM or anti-bacterial peptides, intracellular ATP levels of the bacteria was determined by the ATP Determination Kit. As indicated in the antibacterial assay protocol, after overnight incubation of the ASC-CM or peptides with bacteria for a period of 24 hours, the culture was first spun to eliminate the extracellular ATP and other metabolic waste released from the dead bacteria. The bacterial pellet was resuspended in equivalent amount of water and the levels of intracellular ATP was calculated based on manufacturer's instructions.
The resistance development of S. typhimurium (ST) strain was assessed by sequential passaging in the presence of sub-inhibitory concentrations of gentamicin or ASC-CM. Briefly, sequential passaging of S. typhimurium (ST) cells was done with full-strength, ½-strength, and ¼-strengths of ASC-CM or sub-inhibitory concentrations of gentamicin for a period of 4 weeks. The cells grown in sub-inhibitory strengths of either conditioned media (CM) or gentamicin were diluted to A600 nm (OD600) of 0.1 and serially passaged daily with the same concentrations for 4 weeks at 37° C. with agitation at 24 h intervals.

human keratinocytes = test: 2-dimensional scratch assay; format: cell-based; conditions: compared to media control
Method: Cell confluency of human keratinocytes were assessed in presence of peptides in a 2D scratch assay at each timepoint by applying an ImageJ plugin PHANTAST on phase contrast time lapse images. The rate of change of keratinocytes confluency was calculated by obtaining a best fit line across the confluency vs time plot as described in. The rate of change of confluence was used as a surrogate measure for speed of migrating keratinocytes.

P. aeruginosa (PA) [2] = format: cell-based, Pseudomonas aeruginosa (ATCC 14213); conditions: for minimum bactericidal concentration (MBC): PA; for minimum bactericidal concentration (MBC) / concentration required to significantly kill: MBC = lowest concentration killing ≥50% colonies vs media control
Method: (§1) Examination of the potency of conditioned media obtained from adipose-derived mesenchymal stem cells (ASC-CM) and recombinant peptides against S. typhimurium, P. aeruginosa and S. aureus strains were performed by using the broth microdilution protocol from the Clinical and Laboratory Standards Institute (CLSI) guidelines (CLSI 2012). Briefly, five freshly plated bacteria colonies were grown in cation adjusted MH2 broth in a shaker incubator at 37° C., 220 RPM. Cells were grown to an optical density (OD600) of 0.20 using a Microplate Spectrophotometer. 100 μL of microbial culture containing ˜5×10^5 CFU/mL of bacteria in the respective broths were introduced into each well containing 100 μL of ASC-CM or peptides and incubated overnight at 37° C. Next, to check the bactericidal effects, 100 μL from each well was transferred and spread on sterile MH2 agar plates. The plates were incubated overnight at 37° C. and the number of colonies forming units (CFU) was observed the next day. Readings of bacteria grown in media without any treatments were normalized to 100% as media control. Minimum bactericidal concentration (MBC) was defined as the lowest peptide concentration (μM) required to kill ≥50% bacterial colonies compared to the media control.

[3] = test system: 3-day old P. aeruginosa (PA) biofilm; test: Estimation of biofilm disruption (crystal violet staining); format: cell-based, Pseudomonas aeruginosa (ATCC 14213)
Method: Biofilms were grown in cation adjusted MH2 broth for 72 hours in 96-well clear bottom polystyrene plates. The biofilm inoculum was prepared by subculturing overnight bacterial culture for 90 minutes until OD600 reaches ˜0.3-0.4. 200 μL of biofilm inoculum was aliquoted into each well of the 96-well plate. After 72 hours of static incubation at 37° C., the spent media was expelled, and the biofilms were treated with ASC-CM for 24 hours. […] Briefly, all the contents in the 96-well plates were removed and the wells were washed thrice with 1×PBS (Phosphate Buffer Solution) to remove the non-adherent planktonic bacteria. The attached biofilms were fixed with 95% methanol for 5 minutes. The wells were air-dried and stained with 0.1% crystal violet solution for 15 minutes at room temperature. The crystal violet solution was removed, and the wells were washed with water three times. The plates were again air-dried, and the stained biofilm was solubilized using 30% acetic acid. The absorbance of the biofilms were recorded at OD595 using Micro xMark™ Microplate Absorbance Spectrophotometer.

S. typhimurium (ST) [4] = test: Antibacterial assay (CLSI broth microdilution, CFU counts); format: cell-based; conditions: for minimum bactericidal concentration (MBC) / concentration required to significantly kill: MBC = lowest concentration killing ≥50% colonies vs media control
Method: as §1

S. aureus (SA) = format: cell-based; conditions: for minimum bactericidal concentration (MBC) / concentration required to significantly kill: MBC = lowest concentration killing ≥50% colonies vs media control
Method: as §1

[5] = test system: 3-day old S. typhimurium (ST) biofilm; test: Estimation of biofilm disruption (crystal violet staining); format: cell-based, Salmonella typhimurium
Method: Biofilms were grown in cation adjusted MH2 broth for 72 hours in 96-well clear bottom polystyrene plates. The biofilm inoculum was prepared by subculturing overnight bacterial culture for 90 minutes until OD600 reaches ˜0.3-0.4. 200 μL of biofilm inoculum was aliquoted into each well of the 96-well plate. After 72 hours of static incubation at 37° C., the spent media was expelled, and the biofilms were treated with ASC-CM for 24 hours. Post-treatment, the minimum biofilm inhibition concentration (MBIC) showing >50% reduction was determined by quantifying the levels of remaining attached biofilm, by crystal violet staining method. Briefly, all the contents in the 96-well plates were removed and the wells were washed thrice with 1×PBS (Phosphate Buffer Solution) to remove the non-adherent planktonic bacteria. The attached biofilms were fixed with 95% methanol for 5 minutes. The wells were air-dried and stained with 0.1% crystal violet solution for 15 minutes at room temperature. The crystal violet solution was removed, and the wells were washed with water three times. The plates were again air-dried, and the stained biofilm was solubilized using 30% acetic acid. The absorbance of the biofilms were recorded at OD595 using Micro xMark™ Microplate Absorbance Spectrophotometer.

P. aeruginosa 14213 = test: Murine excisional wound infection model; format: in vivo, mice; conditions: wounds infected 24 hours, then ENO3 (0.2 nM) or SPARCL1 (0.067 nM) for 24 hours; vs untreated controls
Method: The murine wound infection model was carried as described with minor modifications. […] Statistical analysis was performed by Student's t-test compared to untreated (PBS). All approved procedures were performed in accordance with the 218 Institutional Animal Care and Use Committee (IACUC) in Nanyang Technological 219 University, School of Biological Sciences (ARFSBS/NIEA0198Z) for murine wound infection model.
The biofilm disruption ability of ENO3 and SPARCL1 in a murine excisional wound infection model. Excisional wounds were infected with ˜10^3 CFU of P. aeruginosa 14213 and treated for 24 hours to form the biofilms. […] Post-treatment, the wound region was excised, and the bacterial count were enumerated.

P. aeruginosa (PA) [6] = format: cell-based, Pseudomonas aeruginosa (ATCC 14213); conditions: FIG. 6H

CN[C@@H]1[C@@H](O)C(O[C@@H]2[C@@H](O)[C@H](O[C@H]3O[C@H]([C@@H](C)NC)CC[C@H]3N)[C@@H](N)C[C@H]2N)OC[C@]1(C)O (stereo partly drawn) [Gentamicin, (3R,4R,5R)-2-{[(1S,2S,3R,4S,6R)-4,6-diamino-3-{[(2R,3R,6S)-3-amino-6-[(1R)-1-(methylamino)ethyl]oxan-2-yl]oxy}-2-hydroxycyclohexyl]oxy}-5-methyl-4-(methylamino)oxane-3,5-diol, reference compound]
MIC (S. typhimurium (ST) [1]): 1020 µg/mL (≈ 2140 µM)
migration of human keratinocytes (rate of change of confluency) (human keratinocytes): significantly impaired; also recorded: no cell migration is observed

HHKAEKSSVLKSKEESH [Peptide S1A, HHKAEKSSVLKSKEESH]
minimum bactericidal concentration (MBC) (P. aeruginosa (PA) [2]): 100000 nM
anti-bacterial activity (bacterial viability) (P. aeruginosa (PA) [2]; S1A 100 μM): more than 50%
biofilm disruption activity ([3]; S1A 0.78 μM-3.125 μM): more than 50%

KQRNKVKKIYLDEKR [Peptide S1B, KQRNKVKKIYLDEKR]
minimum bactericidal concentration (MBC) (P. aeruginosa (PA) [2]): 50000 nM
anti-bacterial activity (bacterial viability) (P. aeruginosa (PA) [2]; S1B 50 μM): more than 50%
biofilm disruption activity ([3]; S1B 6.25 μM-12.5 μM): more than 50%

KVNQIGSVTESIQACKLAQSN [Peptide E1A]
anti-bacterial activity (bacterial viability) (P. aeruginosa (PA) [2]; E1A 0.39 μM): more than 50%
minimum bactericidal concentration (MBC) (P. aeruginosa (PA) [2]): 390 nM
biofilm disruption activity ([3]; E1A 0.39 μM-1.56 μM): more than 50%
migration of human keratinocytes (rate of change of confluency) (human keratinocytes): increased migration of human keratinocytes; also recorded: higher migration speed

B1: SPARCL1: recombinant full-length human SPARCL1 peptide, SEQ ID NO: 2, identified in bacteria-primed ASC conditioned media (protein, listed as Homo sapiens)
chain: MKTGLFFLCLLGTAAAIPTNARLLSDHSKPTAETVAPDNTAIPSLRAEAEENEKETAVSTEDDSHHKAEKSSVLKSKEESHEQSAEQGKSSSQELGLKDQEDSDGHLSVNLEYAPTEGTLDIKEDMSEPQEKKLSENTDFLAPGVSSFTDSNQQESITKREENQEQPRNYSHHQLNRSSKHSQGLRDQGNQEQDPNISNGEEEEEKEPGEVGTHNDNQERKTELPREHANSKQEEDNTQSDDILEESDQPTQVSKMQEDEFDQGNQEQEDNSNAEMEEENASNVNKHIQETEWQSQEGKTGLEAISNHKETEEKTVSEALLMEPTDDGNTTPRNHGVDDDGDDDGDDGGTDGPRHSASDDYFIPSQAFLEAERAQSIAYHLKIEEQREKVHENENIGTTEPGEHQEAKKAENSSNEEETSSEGNMRVHAVDSCMSFQCKRGHICKADQQGKPHCVCQDPVTCPPTKPLDQVCGTDNQTYASSCHLFATKCRLEGTKKGHQLQLDYFGACKSIPTCTDFEVIQFPLRMRDWLKNILMQLYEANSEHAGYLNEKQRNKVKKIYLDEKRLLAGDHPIDLLLRDFKKNYHMYVYPVHWQFSELDQHPMDRVLTHSELAPLRASLVPMEHCITRFFEECDPNKDKHITLKEWGHCFGIKEEDIDENLLF
minimum bactericidal concentration (MBC) / concentration required to significantly kill (S. typhimurium (ST) [4]): 0.0067 nM
bacterial reduction (CFU %) (S. typhimurium (ST) [4]; SPARCL1 0.0067 nM): more than 50%
minimum bactericidal concentration (MBC) / concentration required to significantly kill (P. aeruginosa (PA) [2]): 268 nM
bacterial reduction (CFU %) (P. aeruginosa (PA) [2]; SPARCL1 268 nM): more than 50%
minimum bactericidal concentration (MBC) / concentration required to significantly kill (S. aureus (SA)): 1000 nM
bacterial reduction (CFU %) (S. aureus (SA); SPARCL1 1000 nM, FIG. 6F): more than 50%
biofilm disruption ([3]; SPARCL1 about 0.00134 nM): ~50%
biofilm disruption ([5]; SPARCL1 about 0.00134 nM): ~50%
migration of human keratinocytes (rate of change of confluency) (human keratinocytes): increased migration of human keratinocytes; also recorded: higher keratinocytes migration rate
bacterial colonies (CFU counts) in excised wound (P. aeruginosa 14213): reduction of bacterial colonies; also recorded: Reduction in bacterial colonies

B2: ENO3: recombinant full-length human ENO3 peptide, SEQ ID NO: 1, identified in bacteria-primed ASC conditioned media (protein, listed as Homo sapiens)
chain: MAMQKIFAREILDSRGNPTVEVDLHTAKGRFRAAVPSGASTGIYEALELRDGDKGRYLGKGVLKAVENINNTLGPALLQKKLSVVDQEKVDKFMIELDGTENKSKFGANAILGVSLAVCKAGAAEKGVPLYRHIADLAGNPDLILPVPAFNVINGGSHAGNKLAMQEFMILPVGASSFKEAMRIGAEVYHHLKGVIKAKYGKDATNVGDEGGFAPNILENNEALELLKTAIQAAGYPDKVVIGMDVAASEFYRNGKYDLDFKSPDDPARHITGEKLGELYKSFIKNYPVVSIEDPFDQDDWATWTSFLSGVNIQIVGDDLTVTNPKRIAQAVEKKACNCLLLKVNQIGSVTESIQACKLAQSNGWGVMVSHRSGETEDTFIADLVVGLCTGQIKTGAPCRSERLAKYNQLMRIEEALGDKAIFAGRKFRNPKAK
bacterial reduction (CFU %) (S. typhimurium (ST) [4]; ENO3 2.04 nM): more than 50%
minimum bactericidal concentration (MBC) / concentration required to significantly kill (S. typhimurium (ST) [4]): 2.04 nM
bacterial reduction (CFU %) (P. aeruginosa (PA) [2]; ENO3 0.204 nM): more than 50%
minimum bactericidal concentration (MBC) / concentration required to significantly kill (P. aeruginosa (PA) [2]): 0.204 nM
bacterial reduction (CFU %) (S. aureus (SA); ENO3 0.102 nM, FIG. 6C): more than 50%
minimum bactericidal concentration (MBC) / concentration required to significantly kill (S. aureus (SA)): 0.102 nM
MBC (S. aureus (SA); S. aureus, >99% reduction of viable colonies, FIG. 6G): 2000 nM
MIC (S. aureus (SA); S. aureus, spot plate, FIG. 6G): 2000 nM
biofilm disruption ([3]; ENO3 about 0.0102 nM): ~50%
biofilm disruption ([5]; ENO3 about 0.0102 nM): more than 50%
migration of human keratinocytes (rate of change of confluency) (human keratinocytes): increased migration of human keratinocytes; also recorded: higher keratinocytes migration rate
bacterial colonies (CFU counts) in excised wound (P. aeruginosa 14213): reduction of bacterial colonies; also recorded: Reduction in bacterial colonies
MBC (P. aeruginosa (PA) [6]; >99% reduction of viable colonies): 6000 nM
MIC (P. aeruginosa (PA) [6]; spot plate): 4000 nM
